# Tests used:
# [1] = tested on: HBV (rAAV8-1.3HBV strain ayw, D type); test: Combination therapy study in AAV-HBV mice (Example 1): serum HBsAg and HBV DNA; type: in vivo, C57BL/6 mice
# Description: The mice (C57BL/6 strain) were inoculated with the following amount of rAAV8-1.3HBV strain ayw, D type: 1.0×10^11 viral genomes per mouse in 200 μl volume via tail veins injection. Four weeks after viral inoculation, treatment with test compounds was initiated.
# Entecavir was administered orally once per day.
# HBV genotype C = test: Serum clearance of HBsAg and viral entry inhibition in PXB-Mouse model (Example 3); type: in vivo, uPA/SCID mice with transplanted primary human hepatocytes; conditions: HBC34 antibody (HBC34-v35-mu-IgG2a) 15 mg/kg, not in combination with the siRNA
# Description: An immune-deficient mouse having transplanted human hepatocytes was used to test the effectiveness of a combination therapy with an HBV-specific siRNA and an anti-HBV antibody in clearing HBsAg.
# Primary human hepatocytes were transplanted into SCID mice for which mouse hepatocytes had previously been destroyed enzamatically. The mice were T- and B-cell deficient. […] Mice were inoculated via tail vein injection with HBV genotype C at 1.0×10^7 viral genomes per mouse. Treatments began eight weeks post-infection.
# HBV-infected mice (n=4 per treatment group) were administered one of seven different treatments: (1) PBS only; (2-4) an anti-HBV antibody (a fully murinized HBC34v35 antibody, HBC34-v35-mu-IgG2a), at one of three doses, administered intraperitoneally twice per week during weeks two and three; or (5-7) an HBV-specific siRNA (HBV02, having an antisense strand of SEQ ID NO:8; see description in Example 1) administered subcutaneously once at the beginning of the study, and the fully murinized HBC34v35, at one of three antibody doses, administered intraperitoneally twice per week during weeks two and three (see Table 7). Mice were sacrificed at week 6.
# Serum samples were collected periodically throughout the study, and viral load, HBsAg, and free HBC34 antibody were measured.
# HBsAg = HBsAg (Hepatitis B virus genotype D subtype ayw, UniProt P03138); test: Activity measured diagnostically with an immunoassay; type: binding, HBV
# antigenic loop of HBsAg = test: Binding to HBsAg; set-up: species or system HBV
# HBV = HBV neutralization; type: cell-based; conditions: human antibodies against HBsAg
# Description: To study and quantitate virus infectivity (or “neutralization”) in the laboratory the person skilled in the art knows various standard “neutralization assays.” For a neutralization assay, animal viruses are typically propagated in cells and/or cell lines. In the context of the present disclosure, for a neutralization assay, cultured cells may be incubated with a fixed amount of HBV in the presence (or absence) of the antibody to be tested. As a readout, the levels of hepatitis B surface antigen (HBsAg) or hepatitis B e antigen (HBeAg) secreted into the cell culture supernatant may be used and/or HBcAg staining may be assessed. In one embodiment of a HBV neutralization assay, cultured cells, for example HepaRG cells, in particular differentiated HepaRG cells, are incubated with a fixed amount of HBV in the presence or absence of the antibody to be tested, for example for 16 hours at 37° C. The incubation may be performed in a medium (e.g., supplemented with 4% PEG 8000). After incubation, cells may be washed and further cultivated. To measure virus infectivity, the levels of hepatitis B surface antigen (HBsAg) and hepatitis B e antigen (HBeAg) secreted into the culture supernatant, e.g., from day 7 to day 11 post-infection, may be determined by enzyme-linked immunosorbent assay (ELISA). Additionally, HBcAg staining may be assessed in an immunofluorescence assay.
molecule,measurement,setting,value
"HBC34: human monoclonal antibody against HBsAg antigenic loop; VH SEQ ID NO:53, VL SEQ ID NO:55",Reduction of serum HBV DNA (viral load) relative to the saline control,"[1]; AAV/HBV-infected C57BL/6 mice, HBV02 3 mg/kg, HBC34 antibody (HBC34-v7-mu-IgG2a) 15 mg/kg, alone or combined, FIGS. 2A, 2B",no effect
same,Reduction of serum HBsAg relative to the saline control,"[1]; AAV/HBV-infected C57BL/6 mice, HBV02 3 mg/kg, HBC34 antibody (HBC34-v7-mu-IgG2a) 15 mg/kg, alone or combined, FIGS. 3A, 3B",< 1 log10
same,"Serum HBV DNA concentration, antibody monotherapy",HBV genotype C; FIG. 9,lower
same,"Serum HBsAg concentration, antibody monotherapy",HBV genotype C; FIG. 10,lower
same,Activity as measured diagnostically with an immunoassay,HBsAg,5000 IU/mg
same,Affinity of binding to the antigenic loop of HBsAg,antigenic loop of HBsAg,high affinity (in the pM range)
same,HBV genotypes and mutants recognized,antigenic loop of HBsAg,all 10 HBV genotypes and 18 mutants
same,Stoichiometry of binding to spherical SVPs,antigenic loop of HBsAg; spherical subviral particles,low stoichiometry
same,Neutralizing activity,HBV,high neutralizing activity
"HBC34v7 (antibody, V domains shown, Synthetic sequence HBC34 VH; Synthetic sequence HBC34v7 VL) VH: ELQLVESGGGWVQPGGSQRLSCAASGRIFRSFYMSWVRQAPGKGLEWVATINQDGSEKLYVDSVKGRFTISRDNAKNSLFLQMNNLRVEDTAVYYCAAWSGNSGGMDVWGQGTTVSVSS VL: SYELTQPPSVSVSPGQTVSIPCSGDKLGNKNVCWFQHKPGQSPVLVIYEVKYRPSGIPERFSGSNSGNTATLTISGTQAMDEAAYFCQTFDSTTVVFGGGTRLTVL",HBsAg levels from mouse serum (average log HBsAg content),"[1]; Treatment 2: HBC34v7 15 mg/kg, day 0 post-dose",4.64 log IU/ml
same,HBsAg levels from mouse serum (average log HBsAg content),"[1]; Treatment 2: HBC34v7 15 mg/kg, day 3 post-dose",4.58 log IU/ml
same,HBsAg levels from mouse serum (average log HBsAg content),"[1]; Treatment 2: HBC34v7 15 mg/kg, day 7 post-dose",4.46 log IU/ml
same,HBsAg levels from mouse serum (average log HBsAg content),"[1]; Treatment 2: HBC34v7 15 mg/kg, day 10 post-dose",4.42 log IU/ml
same,HBsAg levels from mouse serum (average log HBsAg content),"[1]; Treatment 2: HBC34v7 15 mg/kg, day 14 post-dose",4.34 log IU/ml
same,HBsAg levels from mouse serum (average log HBsAg content),"[1]; Treatment 2: HBC34v7 15 mg/kg, day 17 post-dose",3.87 log IU/ml
same,HBsAg levels from mouse serum (average log HBsAg content),"[1]; Treatment 2: HBC34v7 15 mg/kg, day 21 post-dose",4.09 log IU/ml
same,HBsAg levels from mouse serum (average log HBsAg content),"[1]; Treatment 2: HBC34v7 15 mg/kg, day 24 post-dose",3.65 log IU/ml
same,HBsAg levels from mouse serum (average log HBsAg content),"[1]; Treatment 2: HBC34v7 15 mg/kg, day 28 post-dose",4.15 log IU/ml
same,HBsAg levels from mouse serum (average log HBsAg content),"[1]; Treatment 2: HBC34v7 15 mg/kg, day 31 post-dose",4.29 log IU/ml
same,HBsAg levels from mouse serum (average log HBsAg content),"[1]; Treatment 2: HBC34v7 15 mg/kg, day 35 post-dose",4.25 log IU/ml
same,HBsAg levels from mouse serum (average log HBsAg content),"[1]; Treatment 2: HBC34v7 15 mg/kg, day 38 post-dose",4.26 log IU/ml
same,HBsAg levels from mouse serum (average log HBsAg content),"[1]; Treatment 2: HBC34v7 15 mg/kg, day 42 post-dose",4.28 log IU/ml
same,HBsAg levels from mouse serum (average log HBsAg content),"[1]; Treatment 3: HBC34v7 5 mg/kg, day 0 post-dose",4.49 log IU/ml
same,HBsAg levels from mouse serum (average log HBsAg content),"[1]; Treatment 3: HBC34v7 5 mg/kg, day 3 post-dose",4.37 log IU/ml
same,HBsAg levels from mouse serum (average log HBsAg content),"[1]; Treatment 3: HBC34v7 5 mg/kg, day 7 post-dose",4.44 log IU/ml
same,HBsAg levels from mouse serum (average log HBsAg content),"[1]; Treatment 3: HBC34v7 5 mg/kg, day 10 post-dose",4.35 log IU/ml
same,HBsAg levels from mouse serum (average log HBsAg content),"[1]; Treatment 3: HBC34v7 5 mg/kg, day 14 post-dose",4.30 log IU/ml
same,HBsAg levels from mouse serum (average log HBsAg content),"[1]; Treatment 3: HBC34v7 5 mg/kg, day 17 post-dose",4.28 log IU/ml
same,HBsAg levels from mouse serum (average log HBsAg content),"[1]; Treatment 3: HBC34v7 5 mg/kg, day 21 post-dose",4.32 log IU/ml
same,HBsAg levels from mouse serum (average log HBsAg content),"[1]; Treatment 3: HBC34v7 5 mg/kg, day 24 post-dose",4.26 log IU/ml
same,HBsAg levels from mouse serum (average log HBsAg content),"[1]; Treatment 3: HBC34v7 5 mg/kg, day 28 post-dose",4.23 log IU/ml
same,HBsAg levels from mouse serum (average log HBsAg content),"[1]; Treatment 3: HBC34v7 5 mg/kg, day 31 post-dose",3.99 log IU/ml
same,HBsAg levels from mouse serum (average log HBsAg content),"[1]; Treatment 3: HBC34v7 5 mg/kg, day 35 post-dose",3.99 log IU/ml
same,HBsAg levels from mouse serum (average log HBsAg content),"[1]; Treatment 3: HBC34v7 5 mg/kg, day 38 post-dose",4.08 log IU/ml
same,HBsAg levels from mouse serum (average log HBsAg content),"[1]; Treatment 3: HBC34v7 5 mg/kg, day 42 post-dose",4.05 log IU/ml
same,HBsAg levels from mouse serum (average log HBsAg content),"[1]; Treatment 4: HBC34v7 1 mg/kg, day 0 post-dose",4.50 log IU/ml
same,HBsAg levels from mouse serum (average log HBsAg content),"[1]; Treatment 4: HBC34v7 1 mg/kg, day 3 post-dose",4.46 log IU/ml
same,HBsAg levels from mouse serum (average log HBsAg content),"[1]; Treatment 4: HBC34v7 1 mg/kg, day 7 post-dose",4.42 log IU/ml
same,HBsAg levels from mouse serum (average log HBsAg content),"[1]; Treatment 4: HBC34v7 1 mg/kg, day 10 post-dose",4.37 log IU/ml
same,HBsAg levels from mouse serum (average log HBsAg content),"[1]; Treatment 4: HBC34v7 1 mg/kg, day 14 post-dose",4.40 log IU/ml
same,HBsAg levels from mouse serum (average log HBsAg content),"[1]; Treatment 4: HBC34v7 1 mg/kg, day 17 post-dose",4.31 log IU/ml
same,HBsAg levels from mouse serum (average log HBsAg content),"[1]; Treatment 4: HBC34v7 1 mg/kg, day 21 post-dose",4.31 log IU/ml
same,HBsAg levels from mouse serum (average log HBsAg content),"[1]; Treatment 4: HBC34v7 1 mg/kg, day 24 post-dose",4.38 log IU/ml
same,HBsAg levels from mouse serum (average log HBsAg content),"[1]; Treatment 4: HBC34v7 1 mg/kg, day 28 post-dose",4.29 log IU/ml
same,HBsAg levels from mouse serum (average log HBsAg content),"[1]; Treatment 4: HBC34v7 1 mg/kg, day 31 post-dose",4.15 log IU/ml
same,HBsAg levels from mouse serum (average log HBsAg content),"[1]; Treatment 4: HBC34v7 1 mg/kg, day 35 post-dose",4.16 log IU/ml
same,HBsAg levels from mouse serum (average log HBsAg content),"[1]; Treatment 4: HBC34v7 1 mg/kg, day 38 post-dose",4.09 log IU/ml
same,HBsAg levels from mouse serum (average log HBsAg content),"[1]; Treatment 4: HBC34v7 1 mg/kg, day 42 post-dose",4.08 log IU/ml
same,HBsAg levels from mouse serum (average log HBsAg content),"[1]; Treatment 5: HBC34v7 0.1 mg/kg, day 0 post-dose",4.51 log IU/ml
same,HBsAg levels from mouse serum (average log HBsAg content),"[1]; Treatment 5: HBC34v7 0.1 mg/kg, day 3 post-dose",4.36 log IU/ml
same,HBsAg levels from mouse serum (average log HBsAg content),"[1]; Treatment 5: HBC34v7 0.1 mg/kg, day 7 post-dose",4.31 log IU/ml
same,HBsAg levels from mouse serum (average log HBsAg content),"[1]; Treatment 5: HBC34v7 0.1 mg/kg, day 10 post-dose",4.17 log IU/ml
same,HBsAg levels from mouse serum (average log HBsAg content),"[1]; Treatment 5: HBC34v7 0.1 mg/kg, day 14 post-dose",4.26 log IU/ml
same,HBsAg levels from mouse serum (average log HBsAg content),"[1]; Treatment 5: HBC34v7 0.1 mg/kg, day 17 post-dose",4.17 log IU/ml
same,HBsAg levels from mouse serum (average log HBsAg content),"[1]; Treatment 5: HBC34v7 0.1 mg/kg, day 21 post-dose",4.23 log IU/ml
same,HBsAg levels from mouse serum (average log HBsAg content),"[1]; Treatment 5: HBC34v7 0.1 mg/kg, day 24 post-dose",4.25 log IU/ml
same,HBsAg levels from mouse serum (average log HBsAg content),"[1]; Treatment 5: HBC34v7 0.1 mg/kg, day 28 post-dose",4.20 log IU/ml
same,HBsAg levels from mouse serum (average log HBsAg content),"[1]; Treatment 5: HBC34v7 0.1 mg/kg, day 31 post-dose",4.26 log IU/ml
same,HBsAg levels from mouse serum (average log HBsAg content),"[1]; Treatment 5: HBC34v7 0.1 mg/kg, day 35 post-dose",4.38 log IU/ml
same,HBsAg levels from mouse serum (average log HBsAg content),"[1]; Treatment 5: HBC34v7 0.1 mg/kg, day 38 post-dose",4.38 log IU/ml
same,HBsAg levels from mouse serum (average log HBsAg content),"[1]; Treatment 5: HBC34v7 0.1 mg/kg, day 42 post-dose",4.30 log IU/ml
"HBC24: human antibody against HBsAg, VH SEQ ID NO:75, VL SEQ ID NO:76; murinized heavy and light chains SEQ ID NOs:103 and 104 (antibody, V domains shown, Synthetic sequence HBC24 VH; Synthetic sequence HBC24 VL) VH: EVQLLESGGGLVQPGGSLRLSCAASGSTFTKYAMSWVRQAPGKGLEWVASISGSVPGFGIDTYYADSVKGRFTISRDTSKNTLYLQMNSLRAEDTALYYCAKDVGVIGSYYYYAMDVWGQGTAVTVSS VL: EIVLTQSPGTLSLSPGERATLSCRASQGLSSSYLAWYQQKPGQAPRLLIYSASTRATGIPDRFSGSGSGTDFTLTISRLEPEDFAVYYCQQYAYSPRWTFGQGTKVEIK",Neutralizing activity,HBV,high neutralizing activity
